Measured values from patent US20100216693A1, “COMPOSITIONS AND METHODS OF TREATING DIABETES” (priority 2005, published 2010).
Entries after “also recorded” stand apart in the source; their conditions may differ.

Key:
[1] = target: T1, insulin-insulin interaction (Homo sapiens, UniProt P01308); assay: SPR: effect of substances mixed with insulin in solution on insulin-insulin interaction; type: binding; conditions: for effect on insulin-insulin interaction when injected along with insulin: 1:5 molar ratio
T1 construct: 28; purchased Novo Nordisk A/S, Denmark Actrapid
Experimental: BiacorA Biacore 3000 instrument was employed for the interaction measurements based on surface plasmon resonance (SPR). Interaction analyses were performed at 25° C. in 10 mM Na-citrate buffers pH 3, 4, 5, 10 mM bis-Tris, pH 6, and 10 mM Tris/HC1, pH 7, all buffers containing 100 mM NaCl and 0.005% 5P20. Flow rates for the binding analyses were kept at 20 μl/min. […] Insulin was immobilized on a carboxymethyl-modified dextran surface via both amine and carboxyl coupling, using the surface thiol method, in two different lanes of Biacore CM5 chips. The immobilization was carried out according to the procedure described in the kits. In brief, the sensor chip surface was first washed with 4 M LiCl/HBS for 1 min and then with 0.2% SP20/HBS for 1 mM. The surface was activated according to standard procedure with an injection of 0.05 M NHS/0.2 M EDC for 7 min. Desalted insulin solution was diluted in acetate buffer, pH 4.5, to 20 μg/ml and injected at 50/min for different time intervals. For surface thiol coupling, the surface was first activated with 0.05 M NHS/0.2 M EDC for 2 min followed by a 3 min injection of 40 mM cystamine dihydrochloride and then 0.1 M DTE for 3 min. […] The mixture was incubated for 10 mM at room temperature and excess PDEA was removed on a NAP-10 column. The purified PDEA ligand was injected for 7 min, soon after DTE, and finally the surface was washed with 20 mM PDEA in 0.1 M sodium acetate, 1.0 M NaCl. For quick regeneration of the surface, 2 M guanidine-HC1, pH 6.4, was employed. For controls, lanes activated and deactivated according to the standard procedures were used. For subtraction of noise from the data, running buffer only was injected to all surfaces. For the C-terminal attachment, surface-thiol coupling to 4000-5000 RU was used, and for N-terminal attachment, amine coupling to 800-1000 RU as achieved on different CM5 chips. However for kinetic analysis immobilization was carried out in a controlled condition and around 1000 RU for C-terminal and 400 RU for N-terminal coupling were immobilized. A surface activated with EDC/NHS and deactivated with ethanolamine was used as a control surface for N-terminally immobilized insulin and a surface treated with EDC/NHS, cysteine/DTE and finally deactivated with PDEA-NaCl was used as a control for C-terminally immobilized insulin. Biacore data were analyzed with Bia-evaluation software 4.1. All calculations based on numerical approaches, including simulations and global curve fitting for estimates of active concentrations, were performed with IGOR Pro (version 4.01.A, WaveMetrics, Inc.). However, C-peptide, mixed with insulin in solution, influences the insulin-insulin monomer interactions measured above. […] This elevated interaction can be seen at different pH from 3-7. The phenomenon of more pronounced interaction was clearer when concentrations higher than 0.5 μM were used then below 0.5 μM. […] All concentrations were run in triplicates and in random order.

[2] = target: T2, insulin immobilized on the surface of CM5 chip (Homo sapiens, UniProt P01308); assay: SPR: direct binding of C-peptide and variants to insulin immobilized on CM5 chip; conditions: pM-μM, pH 3-7
T2 construct: 28; purchased Novo Nordisk A/S, Denmark Actrapid
Experimental: BiacorA Biacore 3000 instrument was employed for the interaction measurements based on surface plasmon resonance (SPR). Interaction analyses were performed at 25° C. in 10 mM Na-citrate buffers pH 3, 4, 5, 10 mM bis-Tris, pH 6, and 10 mM Tris/HC1, pH 7, all buffers containing 100 mM NaCl and 0.005% 5P20. Flow rates for the binding analyses were kept at 20 μl/min. […] Insulin was immobilized on a carboxymethyl-modified dextran surface via both amine and carboxyl coupling, using the surface thiol method, in two different lanes of Biacore CM5 chips. The immobilization was carried out according to the procedure described in the kits. In brief, the sensor chip surface was first washed with 4 M LiCl/HBS for 1 min and then with 0.2% SP20/HBS for 1 mM. The surface was activated according to standard procedure with an injection of 0.05 M NHS/0.2 M EDC for 7 min. Desalted insulin solution was diluted in acetate buffer, pH 4.5, to 20 μg/ml and injected at 50/min for different time intervals. For surface thiol coupling, the surface was first activated with 0.05 M NHS/0.2 M EDC for 2 min followed by a 3 min injection of 40 mM cystamine dihydrochloride and then 0.1 M DTE for 3 min. […] The mixture was incubated for 10 mM at room temperature and excess PDEA was removed on a NAP-10 column. The purified PDEA ligand was injected for 7 min, soon after DTE, and finally the surface was washed with 20 mM PDEA in 0.1 M sodium acetate, 1.0 M NaCl. For quick regeneration of the surface, 2 M guanidine-HC1, pH 6.4, was employed. For controls, lanes activated and deactivated according to the standard procedures were used. For subtraction of noise from the data, running buffer only was injected to all surfaces. […] Similar results where obtained when insulin was injected on C-peptide immobilized on the surface of a streptavidin (SA) chip. Both peptides were injected in concentration ranging from pM-μM at different pH from 3-7. […] This conclusion is compatible with the fact that C-peptide and insulin are joined in proinsulin by covalent bonds rather than binding attachments, and with little ordered structure in the C-peptide part. […] This appears relevant since C-peptide is very negative (−6 charges) with much repulsive forces.

chip-bound C-peptide = target: T3, chip-bound C-peptide (Homo sapiens, UniProt P01308); assay: SPR: binding of C-peptide in solution to chip-bound C-peptide
T3 sequence (P01308 57-87 limits assumed): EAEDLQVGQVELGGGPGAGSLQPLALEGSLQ
Experimental: Similar results where obtained when insulin was injected on C-peptide immobilized on the surface of a streptavidin (SA) chip. Both peptides were injected in concentration ranging from pM-μM at different pH from 3-7. […] This conclusion is compatible with the fact that C-peptide and insulin are joined in proinsulin by covalent bonds rather than binding attachments, and with little ordered structure in the C-peptide part. […] This appears relevant since C-peptide is very negative (−6 charges) with much repulsive forces.

insulin = target: T4, insulin (Homo sapiens, UniProt P01308); assay: Non-denaturing nano-electrospray mass spectrometry of insulin, C-peptide and control peptides; type: binding
T4 construct: 28; purchased Novo Nordisk A/S, Denmark Actrapid
Experimental: For mass spectrometric analysis, preparation of concentrated insulin stock solution was performed essentially as described [Nettleton et al, 2000, Biophys J. 79:1053]. Briefly, insulin (NovoNordisk A/S, Denmark) was concentrated to 100 μM using ultrafiltration spin-filters (NanoSep, PallGellman, MWCO: 3000 Da). This stock solution was then buffer-exchanged to water, pH 5 (HCl), by extended dialysis. For all experiments, insulin and C-peptide stock solutions were diluted in water-HC1 (pH 5) to reach the indicated concentrations. C-peptide was prepared as a 746 μM stock solution in water and all control peptides were prepared similarly.
Mass spectrometry data were recorded with a QTOF Ultima API instrument (Waters, Milford, Mass.) operated in the positive ion mode. Sample solutions were analyzed by nanoelectrospray from conductive borosilicate glass capillaries (Proxeon Biosystems A/S, Odense, Denmark). Instrument settings were not modified for the observation of non-covalent complexes, other than that the “cone” and the “RF-lens” settings were set to 90 and 50 V, respectively.
The binding between insulin and C-peptide in the gas-phase was studied by non-denaturing electrospray mass spectrometry using a method analogous to that of Nettleton et al [Nettleton et al, 2000, Biophys J. 79:1053].

T1 sequence (P01308 25-54 limits assumed): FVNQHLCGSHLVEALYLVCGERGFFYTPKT
T1 sequence (P01308 90-110 limits assumed): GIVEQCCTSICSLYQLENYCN
T4 sequence (P01308 25-54 limits assumed): as the sequence (P01308 25-54 limits assumed) above
T2 sequence (P01308 25-54 limits assumed): as above

effect on insulin-insulin interaction when injected along with insulin [1] | interaction with immobilized insulin (peptide alone in solution) [2] | stimulation of SPR-measurable binding in mixture with insulin in the flow-through solution ([1]; Example 10) | binding of C-peptide in solution to chip-bound C-peptide (chip-bound C-peptide) | effect of C-peptide on insulin-insulin interaction at pH 4 or 7 ([1]; pH 4 or 7, 10 μM insulin, 50 μM C-peptide) | effect of C-peptide on insulin-insulin interaction at pH 5-6 ([1]; pH 5-6, 10 μM insulin, 50 μM C-peptide) | self-aggregation of the peptide in the gas-phase (insulin) | interaction with insulin in nanoESI-MS at 0.3 μM (insulin; 0.3 μM level, 1:1 ratio) | interaction (heterodimer) with insulin in nanoESI-MS (insulin; 3 μM, 1:1 ratio, pH 5) | concentration at which a dimer of the peptide was detected (insulin; gas-phase) [µM] | interaction with immobilized insulin (peptide alone in solution) ([2]; listed as Proinsulin C-peptide) | Substance | effect on insulin-insulin interaction (SPR binding signal) when mixed with insulin ([1]; insulin:peptide 1:1 and 1:5, pH 3-7) | hexameric insulin charge states in the presence of the peptide (insulin; 30 μM insulin, 30 μM peptide, pH 5)
failed to show any significant increase | showed no interaction with insulin |  |  |  |  |  |  |  |  |  | Glu11-Ala: C-peptide analogue in which Glu 11 has been substituted with Ala (EAEDLQVGQVALGGGPGAGSLQPLALEGSLQ) |  | 
failed to show any significant increase | showed no interaction with insulin | did also not stimulate the SPR signal |  |  |  |  |  |  |  |  | Glu27-Ala: C-peptide analogue in which Glu 27 has been substituted with Ala (EAEDLQVGQVELGGGPGAGSLQPLALAGSLQ) |  | 
 | not to give any observable binding |  | no evidence for such binding | little effect | Enhanced insulin interaction | showed an aggregation tendency | not possible to detect | clearly shows the interaction | 3 | showed no interaction with insulin | Proinsulin C-peptide (EAEDLQVGQVELGGGPGAGSLQPLALEGSLQ) | higher interaction with immobilized insulin; also recorded: increases the observable SPR binding signal | no hexameric insulin was detectable; also recorded: absence of insulin hexamers
